Test results published in patent publication US20150119554A1.

B1: His6ScFvRep4CT (scFv)
chain: MGSSGHHHHHHMEVQLLESGGGLVQPGGSLRLSCAASGFTFSSYEMNWVRQAPGKGLEWVSGISGSGGFTYYADSVKGRFTISRDNSKNTLYLQMNSLRAEDTAMYYCAREGYQDAFDIWGQGTLVTVSSGGGGSGGGGSGGGGSQSVLTQPPSASGTPGQRVTISCTGSSSNIGAGYDVHWYQQLPGTAPKLLIYSNNQRPSGVPDRFSGSKSGTSASLAISGLRSEDEADYYCAAWDDSLSGPPCVFGGGTKLTVLGEQKLISEEDLSGSAAAGNSGQGGYGGLGQGGYGQGAGSSAAAAAAAAAAAAGGQGGQGQGGYGQGSGGSAAAAAAAAAAAAAAAGRGQGGYGQGSGGNAAAAAAAAAAAAAAAGQGGQGGYGRQSQGAGSAAAAAAAAAAAAAAGSGQGGYGGQGQGGYGQSSASASAAASAASTVANSVSRLSSPSAVSRVSSAVSSLVSNGQVNMAALPNIISNISSSVSASAPGASGCEVIVQALLEVITALVQIVSSSSVGYINPSAVNQITNVVANAMAQVMG
B2: His6Rep4CTScFv (scFv)
chain: MHHHHHHGQGGYGGLGQGGYGQGAGSSAAAAAAAAAAAAGGQGGQGQGGYGQGSGGSAAAAAAAAAAAAAAAGRGQGGYGQGSGGNAAAAAAAAAAAAAAAGQGGQGGYGRQSQGAGSAAAAAAAAAAAAAAGSGQGGYGGQGQGGYGQSSASASAAASAASTVANSVSRLSSPSAVSRVSSAVSSLVSNGQVNMAALPNIISNISSSVSASAPGASGCEVIVQALLEVITALVQIVSSSSVGYINPSAVNQITNVVANAMAQVMGGNSEVQLLESGGGLVQPGGSLRLSCAASGFTFSSYEMNWVRQAPGKGLEWVSGISGSGGFTYYADSVKGRFTISRDNSKNTLYLQMNSLRAEDTAMYYCAREGYQDAFDIWGQGTLVTVSSGGGGSGGGGSGGGGSQSVLTQPPSASGTPGQRVTISCTGSSSNIGAGYDVHWYQQLPGTAPKLLIYSNNQRPSGVPDRFSGSKSGTSASLAISGLRSEDEADYYCAAWDDSLSGPPCVFGGGTKLTVLGEQKLISEEDLSGSAAA
B3: His6-scFv1-NTCT (scFv)
chain: MGSSGHHHHHHMEVQLLESGGGLVQPGGSLRLSCAASGFTFSSYEMNWVRQAPGKGLEWVSGISGSGGFTYYADSVKGRFTISRDNSKNTLYLQMNSLRAEDTAMYYCAREGYQDAFDIWGQGTLVTVSSGGGGSGGGGSGGGGSQSVLTQPPSASGTPGQRVTISCTGSSSNIGAGYDVHWYQQLPGTAPKLLIYSNNQRPSGVPDRFSGSKSGTSASLAISGLRSEDEADYYCAAWDDSLSGPPWVFGGGTKLTVLGEQKLISEEDLSGSAAAGNSSHTTPWTNPGLAENFMNSFMQGLSSMPGFTASQLDDMSTIAQSMVQSIQSLAAQGRTSPNKLQALNMAFASSMAEIAASEEGGGSLSTKTSSIASAMSNAFLQTTGVVNQPFINEITQLVSMFAQAGMNDVSAGNSGIQGYGQSSASASAAASAASTVANSVSRLSSPSAVSRVSSAVSSLVSNGQVNMAALPNIISNISSSVSASAPGASGCEVIVQALLEVITALVQIVSSSSVGYINPSAVNQITNVVANAMAQVMG

Tests used:
[1] = biological target: antigen of the ScFv (Example 1); assay: spotted films, Alexa647-labelled pure antigen, fluorescence; reference ScFv alone
[2] = biological target: antigen of scFv1 (Example 6); assay: microarray of spotted films, 10 nM biotinylated antigen, Alexa-647-labeled streptavidin, spot intensity; reference scFv1 control

Binder | fold more antigen bound compared to ScFv alone [1] [times] | fold increase of antigen recognition compared to the scFv1 control alone [2] [times]
B1 | 10 | –
B2 | > 10 | –
B3 | – | 25
